Usually Kd stands for the equilibrium constant for the complex coming apart.

These results are taken from US6127119, “Nucleic acid ligands of tissue target” (NeXstar Pharmaceuticals, Inc.).

B1: FC69 (ssRNA)
RNA: GGGAGAUAAGAAUAAACGCUCAAACAAAUGUGCGCCCUUGGACGAAGUUAACUCGGACGGUUCUUCGACAGGAGGCUCACAACAGGC
modifications: 2'-F pyrimidines
B2: FCN48 (ssRNA)
RNA: GGGAGAUAAGAAUAAACGCUCAAGAUAUACUAACUUUGUUUGAAAGCCAAAAGUAUUAAUGCGUUCGACAGGAGGCUCACAACAGGC
modifications: 2'-F pyrimidines
B3: FCN50 (ssRNA)
RNA: GGGAGAUAAGAAUAAACGCUCAAGAAUGGAGCCAGGAAAGACAGCGAUGUCUCGGACGAUGAGUUCGACAGGAGGCUCACAACAGGC
modifications: 2'-F pyrimidines
B4: FCN24 (ssRNA)
RNA: GGGAGAUAAGAAUAAACGCUCAAAUGAGUAGACCGAGGAAGCACCCGGCUCUCAAAUGAGUGAUUCGACAGGAGGCUCACAACAGGC
modifications: 2'-F pyrimidines
B5: FCN64 (ssRNA)
RNA: B4 RNA with G60C
modifications: 2'-F pyrimidines
B6: FCN31 (ssRNA)
RNA: GGGAGAUAAGAAUAAACGCUCAAUCUGUUGGUUCAAAGACUUGCUAAGGGGUCGAAGCACCCUUUCGACAGGAGGCUCACAACAGGC
modifications: 2'-F pyrimidines
B7: FCN36 (ssRNA)
RNA: GGGAGAUAAGAAUAAACGCUCAAAGCAGAUGGUGCUGAGGUAUCAUGAAGACGCUGACGCUUAUUCGACAGGAGGCUCACAACAGGC
modifications: 2'-F pyrimidines
B8: FCN25 (ssRNA)
RNA: B2 RNA with G38C
modifications: 2'-F pyrimidines
B9: FCN52 (ssRNA)
RNA: GGGAGAUAAGAAUAAACGCUCAAAGCCGAGCUAAUCCCGAAAGUGACCCGGAACGACGCGGCAUUCGACAGGAGGCUCACAACAGGC
modifications: 2'-F pyrimidines
B10: FCN57 (ssRNA)
RNA: GGGAGAUAAGAAUAAACGCUCAAACAAUCUCGGACUAGACUAACGACCUUCGUUUGACGCUUAUUCGACAGGAGGCUCACAACAGGC
modifications: 2'-F pyrimidines
B11: FCN61 (ssRNA)
RNA: B10 RNA with A24G, U36G
modifications: 2'-F pyrimidines
B12: FCN26 (ssRNA)
RNA: GGGAGAUAAGAAUAAACGCUCAAUCCAAGGACCAAACGGGUGUUCGGCAGUGGACUUUAGCAAUUCGACAGGAGGCUCACAACAGGC
modifications: 2'-F pyrimidines
B13: FC14 (ssRNA)
RNA: GGGAGAUAAGAAUAAACGCUCAAGUGUUGGAGCUCUUGAUUGGAAAAGUAGAACAAAUCGAAAUUCGACAGGAGGCUCACAACAGGC
modifications: 2'-F pyrimidines
B14: FC74 (ssRNA)
RNA: B13 RNA with A53G
modifications: 2'-F pyrimidines
B15: FC70 (ssRNA)
RNA: B13 RNA with A53G, U58A
modifications: 2'-F pyrimidines
B16: FC30 (ssRNA)
RNA: B13 RNA with G48U, A53G
modifications: 2'-F pyrimidines
B17: FCN28 (ssRNA)
RNA: GGGAGAUAAGAAUAAACGCUCAAUGGGCUACAUGUGAGUACACCAGCGUGAGAGUUCUUAGGUUCGACAGGAGGCUCACAACAGGC
modifications: 2'-F pyrimidines
B18: FC10 (ssRNA)
RNA: GGGAGAUAAGAAUAAACGCUCAACAGACUCAGAGCGCCGUGAGCUUCUGAAGCAAUCGCAGGUUUCGACAGGAGGCUCACAACAGGC
modifications: 2'-F pyrimidines
B19: FCN29 (ssRNA)
RNA: GGGAGAUAAGAAUAAACGCUCAACUGUGCAGUAACUGCGGAUGAGACCAACCGGAUGGCUCAACUUCGACAGGAGGCUCACAACAGGC
modifications: 2'-F pyrimidines
B20: FC53 (ssRNA)
RNA: GGGAGAUAAGAAUAAACGCUCAAGCGGGGAGCUCCUCGAGAAACUGAGUUCAACUUCCCAGGUUUCGACAGGAGGCUCACAACAGGC
modifications: 2'-F pyrimidines
B21: FCN65 (ssRNA)
RNA: GGGAGAUAAGAAUAAACGCUCAAAGCGCUAGAUGGACGAGAGACUUUUAAGUAGCAAGCGGUAUUCGACAGGAGGCUCACAACAGGC
modifications: 2'-F pyrimidines
B22: FCN8 (ssRNA)
RNA: GGGAGAUAAGAAUAAACGCUCAAUAGCAAGUCCCACAUCCCAGACGGGCUAAAAAGAGGUGGAUUCGACAGGAGGCUCACAACAGGC
modifications: 2'-F pyrimidines

Where a chain is given by its changes, count along the chain named.

Chain of Fibrin (human plasma clot) (P02671 other isoform, or with tags, fused parts or gaps, chain 1 of 3): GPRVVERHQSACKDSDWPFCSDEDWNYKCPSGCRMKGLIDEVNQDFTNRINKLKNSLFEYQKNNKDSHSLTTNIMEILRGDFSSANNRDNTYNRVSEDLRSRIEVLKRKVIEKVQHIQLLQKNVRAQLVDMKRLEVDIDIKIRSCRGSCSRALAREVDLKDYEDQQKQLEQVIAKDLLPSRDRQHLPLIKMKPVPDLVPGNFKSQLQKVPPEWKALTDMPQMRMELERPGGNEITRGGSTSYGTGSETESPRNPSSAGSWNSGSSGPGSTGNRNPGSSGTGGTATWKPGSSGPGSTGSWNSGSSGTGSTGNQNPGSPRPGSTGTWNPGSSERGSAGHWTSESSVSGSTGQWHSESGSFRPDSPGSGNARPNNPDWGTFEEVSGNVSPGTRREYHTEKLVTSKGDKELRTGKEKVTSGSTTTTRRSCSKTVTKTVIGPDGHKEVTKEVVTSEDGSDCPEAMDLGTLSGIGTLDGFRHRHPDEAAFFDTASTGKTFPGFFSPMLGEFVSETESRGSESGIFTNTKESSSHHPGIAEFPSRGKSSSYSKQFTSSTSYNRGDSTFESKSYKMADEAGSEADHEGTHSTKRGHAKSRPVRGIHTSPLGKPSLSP
Chain of Fibrin (human plasma clot) (P02675 45-491, chain 2 of 3): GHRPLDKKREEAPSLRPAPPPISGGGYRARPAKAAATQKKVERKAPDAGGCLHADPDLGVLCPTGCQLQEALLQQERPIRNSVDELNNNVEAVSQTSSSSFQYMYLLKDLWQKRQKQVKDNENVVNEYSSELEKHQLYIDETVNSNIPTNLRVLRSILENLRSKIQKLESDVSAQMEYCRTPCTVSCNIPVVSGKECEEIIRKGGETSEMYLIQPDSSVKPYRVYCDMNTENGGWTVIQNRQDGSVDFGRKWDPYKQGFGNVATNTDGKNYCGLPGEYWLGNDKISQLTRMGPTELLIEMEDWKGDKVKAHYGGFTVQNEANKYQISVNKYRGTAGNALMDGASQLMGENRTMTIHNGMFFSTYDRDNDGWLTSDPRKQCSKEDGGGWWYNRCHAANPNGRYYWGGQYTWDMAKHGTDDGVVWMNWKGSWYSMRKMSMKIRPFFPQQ
Chain of Fibrin (human plasma clot) (P02679 other isoform, or with tags, fused parts or gaps, chain 3 of 3): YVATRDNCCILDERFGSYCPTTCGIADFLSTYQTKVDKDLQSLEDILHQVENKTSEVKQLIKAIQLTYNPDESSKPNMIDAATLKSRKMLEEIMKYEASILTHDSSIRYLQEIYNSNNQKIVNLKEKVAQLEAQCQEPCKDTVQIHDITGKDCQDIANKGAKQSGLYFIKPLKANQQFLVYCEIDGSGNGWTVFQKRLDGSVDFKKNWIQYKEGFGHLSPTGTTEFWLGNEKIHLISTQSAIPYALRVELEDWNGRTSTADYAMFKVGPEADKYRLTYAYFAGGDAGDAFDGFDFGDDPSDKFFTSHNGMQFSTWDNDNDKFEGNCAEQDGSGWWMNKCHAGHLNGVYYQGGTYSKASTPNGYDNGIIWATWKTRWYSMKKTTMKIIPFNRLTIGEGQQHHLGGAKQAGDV

For one series, the target named is Fibrin (human plasma clot) (Homo sapiens, UniProt P02671-2;P02675;P02679-2 P02671-2:36-644,P02675:45-491,P02679-2:27-437). The series can be described thus: competition; homogenized plasma clot, Scatchard high-affinity component. The settings on record: tags: clot from recalcified plasma, complex target; chain copies: 2. On the procedure:
The two best binders in the PE model which had the lowest affinity for fibrinogen were pursued. Both of these clones resided in Motif II. Clone 69 (SEQ ID NO: 55) was analyzed for binding in vitro homogenized clot. By adding a fixed amount of radiolabeled clone 69 (2 nM) to a fixed amount of clot (200 μliters plasma equivalent) with increasing amount of non-radiolabeled ligand, binding could be quantitated. Analyzing data in a Scatchard format yield a two-component curve with high and low affinity binding components. […] These sites were saturable. […] As such it appears that the binding of a specific ligand to clots is specific and stable.
Take B1: the equilibrium dissociation constant (Kd) worked out at 0.0141 µM.

The target of the next series is T1, Fibrinogen (Homo sapiens, UniProt P02671-2;P02675;P02679-2 P02671-2:20-644,P02675:31-491,P02679-2:27-437). The series can be described thus: filter; moderate fibrinogen affinity. The settings on record: chain copies: 2.
T1 sequence (P02671 other isoform, or with tags, fused parts or gaps, chain 1 of 3): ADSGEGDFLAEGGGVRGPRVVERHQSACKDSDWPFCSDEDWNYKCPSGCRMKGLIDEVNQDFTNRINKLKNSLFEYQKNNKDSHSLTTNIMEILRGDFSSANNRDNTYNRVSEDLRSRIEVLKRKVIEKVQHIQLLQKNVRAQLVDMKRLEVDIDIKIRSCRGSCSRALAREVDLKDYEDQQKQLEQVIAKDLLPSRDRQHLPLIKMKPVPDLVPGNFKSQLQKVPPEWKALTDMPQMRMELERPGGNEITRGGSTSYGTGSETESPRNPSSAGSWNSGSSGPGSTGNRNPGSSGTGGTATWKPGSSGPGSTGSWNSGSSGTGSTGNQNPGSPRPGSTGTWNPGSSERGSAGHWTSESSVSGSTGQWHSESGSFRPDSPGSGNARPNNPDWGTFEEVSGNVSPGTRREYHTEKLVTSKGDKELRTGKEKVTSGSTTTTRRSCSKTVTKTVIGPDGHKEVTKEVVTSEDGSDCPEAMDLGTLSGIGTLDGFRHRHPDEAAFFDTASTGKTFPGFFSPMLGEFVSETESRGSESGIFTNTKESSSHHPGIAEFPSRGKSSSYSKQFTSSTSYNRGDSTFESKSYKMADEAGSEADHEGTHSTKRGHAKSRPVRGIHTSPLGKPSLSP
T1 sequence (P02675 31-491, chain 2 of 3): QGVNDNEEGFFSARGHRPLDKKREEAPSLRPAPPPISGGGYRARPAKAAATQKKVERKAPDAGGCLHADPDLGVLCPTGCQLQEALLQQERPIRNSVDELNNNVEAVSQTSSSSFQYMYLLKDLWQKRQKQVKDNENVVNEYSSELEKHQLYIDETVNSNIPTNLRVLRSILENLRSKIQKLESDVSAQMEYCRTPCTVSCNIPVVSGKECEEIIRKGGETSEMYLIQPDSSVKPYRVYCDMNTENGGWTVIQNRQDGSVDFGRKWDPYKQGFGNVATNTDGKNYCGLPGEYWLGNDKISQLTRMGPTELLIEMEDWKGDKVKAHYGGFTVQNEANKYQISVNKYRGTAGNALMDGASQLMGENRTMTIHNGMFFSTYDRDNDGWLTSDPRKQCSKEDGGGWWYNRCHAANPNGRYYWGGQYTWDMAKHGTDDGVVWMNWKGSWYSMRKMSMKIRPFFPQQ
T1 sequence (P02679 other isoform, or with tags, fused parts or gaps, chain 3 of 3): as the sequence (P02679 other isoform, or with tags, fused parts or gaps, chain 3 of 3) above
As to B2, the binding result is “binds”.

Take B3: the binding result is reported as “binds”. Regarding B4, the binding result is “binds”. On to B5, for which the binding result is given as “binds”.

Turning to B6, the binding result is recorded as “binds”. The same measure, in the same setting: for B7 the value was “binds”.

The target of a further series is T1, Fibrinogen. The series can be described thus: filter; low class; printed l mM, probably uM. The settings on record: chain copies: 2.
For B8, the Kd was greater than 1 µM. Same read-out and setting: for B9 the value was greater than 1 µM.

Another series concerns the target T1, Fibrinogen. In words: filter; high class; printed l mM, probably uM. The conditions noted are these: chain copies: 2.
For the molecule B10, the dissociation constant Kd was less than 1 µM. Molecule B11 displayed a dissociation constant (Kd) of less than 1 µM. On the same count and under the same terms, next, B12: less than 1 µM; B13: less than 1 µM; B14: less than 1 µM.

The molecule B15 showed a dissociation constant Kd of less than 1 µM. B16 had a Kd of less than 1 µM. As for B17, the Kd was less than 1 µM. In turn, B18 had a Kd of less than 1 µM. B19: the equilibrium dissociation constant (Kd) was less than 1 µM. In turn, B20 had a dissociation constant Kd of less than 1 µM.

B21 gave a dissociation constant Kd of less than 1 µM.

The target in a further series is T1, Fibrinogen. The series can be described thus: filter; low class; printed l mM, probably uM; clone printed FCNB. The settings on record: chain copies: 2.
For B22, the dissociation constant Kd was greater than 1 µM.
